Data set [1] concerns the target T1, Bicoid DBD-GST (Bcd) (UniProt P09081 83-170).
T1 sequence: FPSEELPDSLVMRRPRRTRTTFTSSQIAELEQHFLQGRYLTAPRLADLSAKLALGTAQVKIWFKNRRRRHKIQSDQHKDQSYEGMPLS
Description: competitive fluorescence anisotropy (HiP-FA); mean of replicates 6.092, 5.6175; HiP-FA: 33 mM phosphate pH 7.0, 90 mM NaCl, 0.01% Tween 20, 0.1 mM DTT, 0.5% agarose; conventional titration and EMSA: 20 mM Tris-acetate pH 7.0, 50 nM (sic) NaCl, 0.01% Tween-20, 0.1 mM DTT. The conditions noted are these: protein: recombinant; tags: N-terminal GST; blunt. A general note: A gel shift assay detects complexes by their altered migration in electrophoresis.

For data set [2], the target named is T2, Bcd homeodomain (Drosophila melanogaster, UniProt P09081-2 77-166).
T2 sequence: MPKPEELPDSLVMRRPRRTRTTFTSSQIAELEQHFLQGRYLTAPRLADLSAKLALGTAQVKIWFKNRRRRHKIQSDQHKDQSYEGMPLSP
Description: FP; binding buffer, no gel. The conditions noted are these: tags: N-GST (pGEX-6P-1, kept); label: 5' Cy5 on strand 1.

For data set [3], the target named is T1, Bicoid DBD-GST (Bcd). Description: competitive fluorescence anisotropy (HiP-FA); mean of replicates 5.163, 4.995; HiP-FA: 33 mM phosphate pH 7.0, 90 mM NaCl, 0.01% Tween 20, 0.1 mM DTT, 0.5% agarose; conventional titration and EMSA: 20 mM Tris-acetate pH 7.0, 50 nM (sic) NaCl, 0.01% Tween-20, 0.1 mM DTT. The conditions noted are these: protein: recombinant; tags: N-terminal GST; blunt, G:G mismatch at position 6.

Data set [4] concerns the target T1, Bicoid DBD-GST (Bcd). Description: competitive fluorescence anisotropy (HiP-FA); mean of replicates 3.961, 3.634; HiP-FA: 33 mM phosphate pH 7.0, 90 mM NaCl, 0.01% Tween 20, 0.1 mM DTT, 0.5% agarose; conventional titration and EMSA: 20 mM Tris-acetate pH 7.0, 50 nM (sic) NaCl, 0.01% Tween-20, 0.1 mM DTT. Particulars: protein: recombinant; tags: N-terminal GST; blunt, G:G mismatch at position 6.

In data set [5] the target is T1, Bicoid DBD-GST (Bcd). Briefly: competitive fluorescence anisotropy (HiP-FA); mean of replicates 5.027, 4.3975; HiP-FA: 33 mM phosphate pH 7.0, 90 mM NaCl, 0.01% Tween 20, 0.1 mM DTT, 0.5% agarose; conventional titration and EMSA: 20 mM Tris-acetate pH 7.0, 50 nM (sic) NaCl, 0.01% Tween-20, 0.1 mM DTT. Particulars: protein: recombinant; tags: N-terminal GST; blunt, G:G mismatch at position 6.

Data set [6] addresses T1, Bicoid DBD-GST (Bcd). Briefly: competitive fluorescence anisotropy (HiP-FA); mean of replicates 2.816, 2.505; HiP-FA: 33 mM phosphate pH 7.0, 90 mM NaCl, 0.01% Tween 20, 0.1 mM DTT, 0.5% agarose; conventional titration and EMSA: 20 mM Tris-acetate pH 7.0, 50 nM (sic) NaCl, 0.01% Tween-20, 0.1 mM DTT. Particulars: protein: recombinant; tags: N-terminal GST; blunt, G:G mismatch at position 6.

The target in data set [7] is T1, Bicoid DBD-GST (Bcd). Briefly: competitive fluorescence anisotropy (HiP-FA); mean of replicates 6.544, 6.784; HiP-FA: 33 mM phosphate pH 7.0, 90 mM NaCl, 0.01% Tween 20, 0.1 mM DTT, 0.5% agarose; conventional titration and EMSA: 20 mM Tris-acetate pH 7.0, 50 nM (sic) NaCl, 0.01% Tween-20, 0.1 mM DTT. The conditions noted are these: protein: recombinant; tags: N-terminal GST; blunt.

Data set [8] addresses T1, Bicoid DBD-GST (Bcd). Briefly: competitive fluorescence anisotropy (HiP-FA); mean of replicates 4.889, 5.1445; HiP-FA: 33 mM phosphate pH 7.0, 90 mM NaCl, 0.01% Tween 20, 0.1 mM DTT, 0.5% agarose; conventional titration and EMSA: 20 mM Tris-acetate pH 7.0, 50 nM (sic) NaCl, 0.01% Tween-20, 0.1 mM DTT. Particulars: protein: recombinant; tags: N-terminal GST; blunt, C:C mismatch at position 6 as printed.

The target in data set [9] is T2, Bcd homeodomain. Briefly: EMSA; 20 mM Tris-acetate pH 7.0, 50 "nM" NaCl as printed (probably mM), 0.01% Tween 20, 0.1 mM DTT, 10% glycerol; room temperature; 4 nM probe. Particulars: tags: N-GST (pGEX-6P-1, kept); label: Cy3.
The target in data set [10] is T1, Bicoid DBD-GST (Bcd). Briefly: competitive fluorescence anisotropy (HiP-FA); mean of replicates 2.884, 2.6855; HiP-FA: 33 mM phosphate pH 7.0, 90 mM NaCl, 0.01% Tween 20, 0.1 mM DTT, 0.5% agarose; conventional titration and EMSA: 20 mM Tris-acetate pH 7.0, 50 nM (sic) NaCl, 0.01% Tween-20, 0.1 mM DTT. The conditions noted are these: protein: recombinant; tags: N-terminal GST; blunt, G:G mismatch at position 6.

Data set [11] has as its target T1, Bicoid DBD-GST (Bcd). Description: competitive fluorescence anisotropy (HiP-FA); mean of replicates 4.834, 5.5235; HiP-FA: 33 mM phosphate pH 7.0, 90 mM NaCl, 0.01% Tween 20, 0.1 mM DTT, 0.5% agarose; conventional titration and EMSA: 20 mM Tris-acetate pH 7.0, 50 nM (sic) NaCl, 0.01% Tween-20, 0.1 mM DTT. Particulars: protein: recombinant; tags: N-terminal GST; blunt, G:G mismatch at position 6.

The target of data set [12] is T1, Bicoid DBD-GST (Bcd). Description: competitive fluorescence anisotropy (HiP-FA); mean of replicates 3.751, 3.7605; HiP-FA: 33 mM phosphate pH 7.0, 90 mM NaCl, 0.01% Tween 20, 0.1 mM DTT, 0.5% agarose; conventional titration and EMSA: 20 mM Tris-acetate pH 7.0, 50 nM (sic) NaCl, 0.01% Tween-20, 0.1 mM DTT. Particulars: protein: recombinant; tags: N-terminal GST; blunt, G:G mismatch at position 6.

For twelve molecules, Kd and koff results are on record in article PMC5913336, “True equilibrium measurement of transcription factor-DNA binding affinities using automated polarization microscopy”.

B1: Bcd competitor 6 (G2A) (dsDNA)
DNA 1: TCGACAGTAATCCCTA
DNA 2: TAGGGATTACTGTCGA
As to B1, the Kd with Bicoid DBD-GST (Bcd) [1] was determined as 5.86 nM.

B2: Bcd Cy5 reference (dsDNA)
DNA 1: TCGACGCTAAGCTGTA
DNA 2: TACAGCTTAGCGTCGA
In the data set with Bcd homeodomain [2], B2 yielded a koff of 0.41 s⁻¹.

B3: Bcd competitor 32 (T11G) (dsDNA)
DNA 1: TCGACGGTAATCCCGA
DNA 2: TCGGGATTACGGTCGA
Take B3: the Kd with Bicoid DBD-GST (Bcd) [3] worked out at 5.08 nM.

B4: Bcd competitor 31 (T11C) (dsDNA)
DNA 1: TCGACGGTAATCCCCA
DNA 2: TGGGGATTACGGTCGA
As to B4, the Kd with Bicoid DBD-GST (Bcd) [4] was 3.8 nM.

B5: Bcd competitor 33 (T11A) (dsDNA)
DNA 1: TCGACGGTAATCCCAA
DNA 2: TTGGGATTACGGTCGA
Take B5: the Kd with Bicoid DBD-GST (Bcd) [5] came to 4.71 nM.

B6: Bcd competitor 2 (C1T) (dsDNA)
DNA 1: TCGATGGTAATCCCTA
DNA 2: TAGGGATTACGATCGA
For the molecule B6, in the data set with Bicoid DBD-GST (Bcd) [6], the Kd was 2.66 nM.

B7: Bcd competitor 5 (G2T) (dsDNA)
DNA 1: TCGACTGTAATCCCTA
DNA 2: TAGGGATTACAGTCGA
For B7, the Kd with Bicoid DBD-GST (Bcd) [7] is 6.66 nM.

B8: Bcd competitor 4 (G2C) (dsDNA)
DNA 1: TCGACCGTAATCCCTA
DNA 2: TAGGGATTACCGTCGA
Regarding B8, the Kd with Bicoid DBD-GST (Bcd) [8] was found to be 5.02 nM.

B9: Bcd EMSA probe (dsDNA)
DNA 1: TCGACCGTAATCCCTA
DNA 2: TAGGGATTACGGTCGA
As to B9, in the data set with Bcd homeodomain [9], the Kd is 1.8 ± 0.2 nM.

B10: Bcd competitor 7 (G3C) (dsDNA)
DNA 1: TCGACGCTAATCCCTA
DNA 2: TAGGGATTAGGGTCGA
For the molecule B10, the Kd with Bicoid DBD-GST (Bcd) [10] came out at 2.79 nM.

B11: Bcd competitor 30 (C10A) (dsDNA)
DNA 1: TCGACGGTAATCCATA
DNA 2: TATGGATTACGGTCGA
As for B11, in the data set with Bicoid DBD-GST (Bcd) [11], the Kd was 5.18 nM.

B12: Bcd competitor 3 (C1A) (dsDNA)
DNA 1: TCGAAGGTAATCCCTA
DNA 2: TAGGGATTACGTTCGA
Consider B12, for which the Kd with Bicoid DBD-GST (Bcd) [12] worked out at 3.76 nM.

The term Kd denotes a measure of binding affinity in units of concentration. As usually defined, the koff is the first-order rate constant of dissociation. Lower therefore signals a long-lived complex.
